Results on three substances are retold here after paper PMC4140785.

One may read the Kd as the concentration at which binding is half-saturated. A higher Kd goes with a looser complex. One may read the koff as the first-order rate constant of dissociation. What is called kon is the rate constant with which the complex forms.

Experiment [1] concerns the target CD4-mimetic miniprotein M48U1. The experiment can be described thus: SPR.
For experiment [2], the target named is full-length HIV-1 gp120 from the clade B YU2 strain (HIV-1 (clade B, strain YU2)) (UniProt P35961). Description: SPR. On the technique in general: SPR reads the build-up and loss of mass on a sensor chip optically.

Consider “full-length HIV-1 gp120 from the clade B YU2 strain (from UniProt P35961 32-498) (natural protein)”, for which the Kd in experiment [1] is 0.014 nM.

Consider “CD4-mimetic miniprotein M48U1 (designed binder)”, for which, in experiment [2], the Kd is 0.0154 nM.

As to “CD4-mimetic miniprotein M48U7 (designed binder)”, in experiment [2], the Kd is 0.18 nM, the koff turned out to be 0.000446 s⁻¹ and the kon was 2.42e+06 M⁻¹ s⁻¹.
